Holding throughout (type): biochemical
Assay [1] is described as follows: PLA2 activity assay toward plasmenylcholine. The settings on record: for Activity: 100 mM Hepes, 2 mM DTT. How it is done: (§1) The protein concentration was determined by the Bio-Rad protein assay, using bovine serum albumin (BSA) as standard. Protein purity was examined using 12% SDS-PAGE and Coomassie blue staining. LysoPLA activity was measured at 40° C. in the assay buier containing LysoPC, 100 mM Tris-HCl (pH 8.0) and 10 mM LMe. Cold 1-palmitoyl-sn-glycero-3-phosphorylcholine (125 μM, unless indicated otherwise) was mixed with 1-[14 C]palmitoyl-sn-glycero-3-phosphorylcholine (100,000 cpm) in a total volume of 0.5 ml. The assay was initiated by adding an aliquot of enzyme solution to the substrate mixture and incubating for the desired time. The released fatty acid was extracted by the modified Dole method and then quantified by scintillation counting. The PLA2 activity assay was carried out, using various ^14C-labeled phospholipid substrates under various conditions as given in the text. The rat brain iPLA2 was purified as described elsewhere (H. C. Yang et al., manuscript in preparation incorporated herein). Human recombinant cPLA2 was a gift from Drs. J. D. Sharp and R. M. Kramer at Lilly Laboratories. 1-[^14C]Palmitoyl-sn-glycero-3-phosphorylcholine and 1-palmitoyl-2-[1-^14C]palmitoyl-sn-glycerol-3-phosphorylcholine were purchased from Amersham. 1-Palmitoyl-2-[1-^14C]arachidonoyl-sn-glycerol-3-phosphorylcholine was purchased from DuPont-NEN. All unlabeled phospholipids were purchased from Avanti Polar Lipids. Triton X-100 (TX-100) and PIP2 were obtained from CalBiochem.
The sn-2 labeled PlsCho (plasmenylcholine or 1-O— (Z)-1P-alkenyl-2-arachidonoyl-sn-glycero-3-phosphocholine) was synthesized as follows. A total of 4 μmol [1-14C]arachidonic acid (from NEN, with specific activity […]) was diluted 10 times with cold arachidonic acid in 250 μl distilled methylene chloride (Fisher Scientific). To this 0.04 mmol p(N,N-dimethyl)amino pyridine (Aldrich) and 0.08 mmol 1,3-dicyclohexyl carbodiimide (Aldrich) were added to yield the arachidonoyl anhydride upon 1 h of stirring. Lysoplasmenylcholine (0.06 mmol, from Serdary) dissolved in 200 μl methylene chloride and 50 μl pyridine (Fisher Scienticc) was added to the arachidonoyl anhydride solution with 0.03 μmol dimethylaminopyridine and left stirring for 8 h. The reaction progress was monitored by thin layer chromatography (Merck) using a mobile phase of chloroform:methanol:triethyl amine:water (65:30:1.5:3.5), and retardation factors were 0.6 and 0.2 for PlsCho and LysoPlsCho, respectively. The separation of the product was carried out by preparative layer chromatography (Merck) in the above mobile system. The reaction yielded a total of 3.6 mg (7.7 μmol) of radiolabeled PlsCho (specific activity 0.18 μCi/μmol) by quantitative phosphate analysis.
(§2) When we first purified the mouse LysoPLA from P388D1 cells, no other enzymatic activities (PLA1, PLA2, acyltransferase, transacylase and esterase) were found. Therefore, it appears to be a LysoPL-specific LysoPLA. Similar results were obtained for the rat LysoPLA and the relative rates towards different LysoPL substrates were reported [Sugimoto et al., (1996) J. Biol. Chem. 271, 7705-11]. However, a recently sequenced rabbit enzyme that shares high sequence homology (approx. 97%) to the rat/mouse LysoPLA was reported to have both PLA2 and LysoPLA activities [Portilla, et al., […] J. Am. Soc.Nephrol. 9, 1178-86]. The specific activities, however, were only 10 nmol/min/mg for PLA2 activity and 20 nmol/min/mg for LysoPLA activity. The PLA2 activity was also reported to be selective for PlsCho substrate with arachidonic acid at the sn2 position. To determine whether hLysoPLA also expresses PLA2 activity, we have explored its ability to hydrolyze arachidonic acid labeled PlsCho as well as other phospholipid substrates under a variety of conditions.

Assay [2] can be described thus: PLA2 activity assay toward DPPC. The settings on record: DPPC/TX-100 mixed micelles (100 μM:400 μM); 100 mM Hepes, pH 7.5, 2 mM DTT, 5 mM EDTA. As to the method:
as §1, §2

The nature of assay [3]: PLA2 activity assay toward PAPC. As to conditions: 100 mM Hepes, 2 mM DTT. As to the method:
as §1, §2

B1: Rat brain iPLA2: Ca2+-independent phospholipase A2 purified from rat brain (protein, UniProt P97570 1-807, looked up)
85/88 kDa calcium-independent …: MQFFGRLVNTLSSVTNLFSNPFRVKEVSLADYASSERVREEGQLILLQNASNRTWDCVLVSPRNPQSGFRLFQLESEADALVNFQQYSSQLPPFYESSVQVLHVEVLQHLTDLIRNHPSWTVTHLAVELGIRECFHHSRIISCANSTENEEGCTPLHLACRKGDSEILVELVQYCHAQMDVTDNKGETAFHYAVQGDNPQVLQLLGKNASAGLNQVNNQGLTPLHLACQMGKQEMVRVLLLCNARCNIMGPGGFPIHTAMKFSQKGCAEMIISMDSNQIHSKDPRYGASPLHWAKNAEMARMLLKRGCDVDSTSASGNTALHVAVTRNRFDCVMVLLTYGANAGARGEHGNTPLHLAMSKDNMEMVKALIVFGAEVDTPNDFGETPAFIASKISKLITRKALLTLLKTVGADYHFPFIQGVSTEQSSAAGPHPFFSLDRTQPPTISLNNLELQDLMPVSRARKPAFILSSMRDEKRSHDHLLCLDGGGVKGLVIIQLLIAIEKASGVATKDLFDWVAGTSTGGILALAILHSKSMAYMRGVYFRMKDEVFRGSRPYESGPLEEFLKREFGEHTKMTDVKKPKVMLTGTLSDRQPAELHLFRNYDAPEAVREPRCTPNINLKPPTQPADQLVWRAARSSGAAPTYFRPNGRFLDGGLLANNPTLDAMTEIHEYNQDMIRKGQGNKVKKLSIVVSLGTGKSPQVPVTCVDVFRPSNPWELAKTVFGAKELGKMVVDCCTDPDGRAVDRARAWCEMVGIQYFRLNPQLGSDIMLDEVSDAVLVNALWETEVYIYEHREEFQKLVQLLLSP
Take B1: the Activity in assay [1] (PisCho/TX-100 mixed micelles (100 μM:600 μM), pH 7.5, 5 mM EDTA) amounted to 0.53 ± 0.03 µmol/min/mg; in assay [2] it was 5.6 ± 0.2 µmol/min/mg; in assay [3] (PAPC/TX-100 mixed micelles (100 μM:400 μM), pH 7.5, 5 mM EDTA), 2.0 ± 0.04 µmol/min/mg. Also, the “fold lower activity toward PlsCho than toward DPPC” value in assay [1] (TX-100 mixed micelles) was 10 fold. Also, the “fold lower activity toward PlsCho than toward PAPC” value in assay [1] (TX-100 mixed micelles) was determined as 4 fold.

B2: Human Recombinant cPLA2: human recombinant cytosolic Ca2+-dependent phospholipase A2, gift from Lilly Laboratories (protein, UniProt P47712 1-749, looked up)
Cytosolic phospholipase A2: MSFIDPYQHIIVEHQYSHKFTVVVLRATKVTKGAFGDMLDTPDPYVELFISTTPDSRKRTRHFNNDINPVWNETFEFILDPNQENVLEITLMDANYVMDETLGTATFTVSSMKVGEKKEVPFIFNQVTEMVLEMSLEVCSCPDLRFSMALCDQEKTFRQQRKEHIRESMKKLLGPKNSEGLHSARDVPVVAILGSGGGFRAMVGFSGVMKALYESGILDCATYVAGLSGSTWYMSTLYSHPDFPEKGPEEINEELMKNVSHNPLLLLTPQKVKRYVESLWKKKSSGQPVTFTDIFGMLIGETLIHNRMNTTLSSLKEKVNTAQCPLPLFTCLHVKPDVSELMFADWVEFSPYEIGMAKYGTFMAPDLFGSKFFMGTVVKKYEENPLHFLMGVWGSAFSILFNRVLGVSGSQSRGSTMEEELENITTKHIVSNDSSDSDDESHEPKGTENEDAGSDYQSDNQASWIHRMIMALVSDSALFNTREGRAGKVHNFMLGLNLNTSYPLSPLSDFATQDSFDDDELDAAVADPDEFERIYEPLDVKSKKIHVVDSGLTFNLPYPLILRPQRGVDLIISFDFSARPSDSSPPFKELLLAEKWAKMNKLPFPKIDPYVFDREGLKECYVFKPKNPDMEKDCPTIIHFVLANINFRKYRAPGVPRETEEEKEIADFDIFDDPESPFSTFNFQYPNQAFKRLHDLMHFNTLNNIDVIKEAMVESIEYRRQNPSRCSVSLSNVEARRFFNKEFLSKPKA
For the molecule B2, the Activity in assay [1] (PisCho/PIP2/TX-100 mixed micelles (100 μM:3 μM:600 μM), pH 7.5, 80 μM Ca2+, 0.1 mg/ml BSA) is 13.58 ± 0.05 µmol/min/mg; in assay [3] (PAPC/PIP2/TX-100 mixed micelles (97 μM:3 μM:400 μM), pH 7.5, 80 μM Ca2+, 0.1 mg/ml BSA) it was 21.81 ± 0.09 µmol/min/mg. Further, in assay [1] (in the presence of 3 mol % PIP2, same conditions), the “activity toward PlsCho relative to activity toward PAPC” value is on record as “about 60%”.

Source of the values: US7294496B1, “Cloned human lysophospholipase” (The Regents of the University of California, priority 2000, dated 2007).
